According to the supplement of paper PMC10567573:

B1: TRIM39 (parent)
chain: CKACITRWWEDLERDFPCPVCRKT
B2: APBB1IP (parent)
chain: SQVSMWDQRWQDHQPLLPITDVP

Variants of: B1
Test: protein stability index of a GFP-peptide fusion (GPS, HEK-293T) (PSI 1-6); higher = more stable
Settings: c terminus: a fixed tail appended
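Also: lentivirally expressed fusions sorted by FACS into six bins by GFP to DsRed ratio, PSI derived from sequencing read proportions per bin multiplied by bin number.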

Row | Variant | protein stability index
1 | R22Q | 3.96
2 | R22E | 4.37
3 | R22F | 3.4
4 | R22D | 3.75
5 | R22P | 3.15
6 | W9L | 3.87
7 | W9N | 4.52
8 | W9C | 4.53
9 | W9H | 5.16
10 | W9R | 4.47
11 | W9I | 3.65
12 | I5P | 3.86
13 | I5V | 3.35
14 | I5C | 4.63
15 | I5A | 4.25
16 | I5M | 4.22
17 | I5S | 4.22
18 | T24H | 3.58
19 | T24P | 2.78
20 | T24M | 3.76
21 | T24D | 4.83
22 | T24V | 3.57
23 | T24Q | 4.21
24 | T24A | 4.07
25 | V20L | 4.16

Row | Variant | protein stability index
26 | V20S | 4.3
27 | V20N | 4.37
28 | V20M | 3.37
29 | V20G | 3.39
30 | C18F | 2.34
31 | C18S | 1.88
32 | C18Q | 2.53
33 | C18G | 1.77
34 | W8L | 4.19
35 | W8V | 4.73
36 | W8N | 5.12
37 | W8S | 4.92
38 | W8K | 4.6
39 | L12F | 3.88
40 | L12S | 4.44
41 | L12Y | 3.43
42 | L12R | 3.86
43 | L12E | 3.29
44 | L12I | 3.71
45 | L12A | 4
46 | L12M | 4.14
47 | C1L | 2.31
48 | C1Q | 2.3
49 | C1D | 2.45
50 | K2G | 3.59

Row | Variant | protein stability index
51 | K2S | 4.59
52 | K2N | 4.4
53 | K2W | 3.23
54 | K2A | 4.08
55 | K2I | 3.25
56 | K2R | 4.02
57 | K2Y | 4.23
58 | K2L | 3.58
59 | A3C | 3.57
60 | A3Q | 4.06
61 | A3E | 4.12
62 | A3S | 4.21
63 | A3I | 3.9
64 | D11G | 2.85
65 | D11A | 3.71
66 | D11Y | 3.31
67 | D11H | 3.52
68 | D11E | 3.68
69 | E10G | 3.94
70 | E10M | 3.64
71 | E10K | 3.5
72 | E10W | 2.92
73 | E10H | 3.77
74 | E10F | 3.51
75 | E10Y | 3.24

Row | Variant | protein stability index
76 | P19H | 3.35
77 | P19W | 2.1
78 | P19S | 3.47
79 | P19G | 2.86
80 | P19E | 3.55
81 | P19F | 1.95
82 | R7F | 3.79
83 | R7G | 4.08
84 | R7P | 3.93
85 | R14Y | 3.48
86 | R14P | 3.79
87 | R14D | 3.99
88 | C21L | 1.62
89 | C21G | 1.4
90 | C21V | 1.52
91 | C21R | 1.94
92 | C21F | 1.43
93 | C21W | 2.18
94 | K23D | 4.34
95 | K23C | 3.13
96 | K23I | 3.23
97 | K23M | 3.37
98 | K23P | 3.41
99 | K23L | 2.96
100 | K23A | 3.9

Row | Variant | protein stability index
101 | C4P | 2.1
102 | C4F | 2.45
103 | C4D | 1.75
104 | C4K | 2.05
105 | C4M | 1.9
106 | C4Y | 1.61
107 | C4T | 2.24
108 | T6I | 3.01
109 | T6H | 3.28
110 | T6A | 3.64
111 | T6Y | 3.33
112 | T6E | 4.03
113 | T6K | 3.57
114 | T6N | 4.38
115 | T6F | 2.95
116 | T6L | 3.58
117 | T6S | 3.62
118 | T6G | 4.36
119 | E13N | 3.61
120 | E13L | 3.15
121 | E13W | 2.92
122 | E13F | 3.37
123 | D15Q | 3.36
124 | D15R | 2.46
125 | D15T | 3.06

Row | Variant | protein stability index
126 | D15L | 2.26
127 | D15F | 3.24
128 | D15A | 3.32
129 | D15G | 3.31
130 | D15M | 2.37
131 | F16R | 4.2
132 | F16N | 3.54
133 | F16T | 4.37
134 | F16L | 2.96
135 | F16Q | 4.59
136 | F16D | 4.42
137 | F16M | 3.99
138 | F16Y | 3.7
139 | P17L | 3.85
140 | P17W | 3.49
141 | P17D | 3.5
142 | P17T | 3.97
143 | P17A | 3.55
144 | P17H | 4
145 | P17S | 4.2
146 | P17I | 3.97
147 | P17N | 4.27
148 | P17K | 4.06

Variants of: B2
Test: as above
Settings: c terminus: native

Row | Variant | protein stability index
149 | S4E | 3.8
150 | S4H | 1.74
151 | S4P | 2.73
152 | S4C | 1.95
153 | S4D | 2.58
154 | S4T | 2.23
155 | S4K | 2.15
156 | S4Q | 4.05
157 | S4F | 1.98
158 | S4N | 2.92
159 | S4A | 2.84
160 | S4M | 2.57
161 | S4V | 2.49
162 | S4I | 2.42
163 | S4Y | 2.42
164 | S4W | 2.01
165 | S4L | 2.02
166 | Q2A | 1.88
167 | Q2I | 2.75
168 | Q2M | 3.18
169 | Q2Y | 1.89
170 | Q2G | 2.07
171 | Q2T | 2.54
172 | Q2H | 2.23

Row | Variant | protein stability index
173 | Q2L | 1.5
174 | Q2V | 2.33
175 | Q2F | 1.31
176 | Q2D | 3.38
177 | Q2E | 3.32
178 | Q2C | 1.94
179 | Q2K | 2.57
180 | Q2S | 1.88
181 | Q2R | 1.66
182 | Q2W | 1.72
183 | Q2P | 2.83
184 | Q2N | 2.6
185 | V3M | 2.83
186 | V3R | 2.43
187 | V3E | 2.9
188 | V3H | 3.28
189 | V3L | 2.04
190 | V3S | 2.84
191 | V3Q | 3.47
192 | V3W | 1.64
193 | V3I | 2.23
194 | V3K | 2.34
195 | V3N | 2.49
196 | V3P | 2.8

Row | Variant | protein stability index
197 | V3T | 2.34
198 | V3C | 1.91
199 | V3D | 2.81
200 | V3A | 3.18
201 | V3Y | 2.27
202 | V3F | 1.86
203 | Q11K | 2.87
204 | Q11A | 1.84
205 | Q11F | 1.68
206 | Q11G | 1.77
207 | Q11H | 1.67
208 | Q11M | 2.06
209 | Q11E | 3.38
210 | Q11D | 2.38
211 | Q11I | 3.03
212 | Q11C | 1.92
213 | Q11L | 1.59
214 | W10P | 3.68
215 | W10M | 2.4
216 | W10K | 3.75
217 | W10S | 3.37
218 | W10C | 3.12
219 | W10Y | 2.55
220 | W10F | 2.31

Row | Variant | protein stability index
221 | W10L | 2.51
222 | W10H | 3.14
223 | W10Q | 3.29
224 | W10V | 2.17
225 | W10D | 3.44
226 | W10I | 2.81
227 | W10N | 3.39
228 | W10R | 3.03
229 | W6L | 3.09
230 | W6N | 3.52
231 | W6I | 2.56
232 | W6C | 3.04
233 | W6T | 4.02
234 | W6G | 2.95
235 | W6R | 3.29
236 | W6P | 3.18
237 | W6H | 2.51
238 | W6Y | 2.09
239 | W6V | 3.01
240 | W6E | 4.03
241 | W6M | 2.65
242 | W6A | 3.27
243 | W6S | 3.08
244 | W6D | 4.13

Row | Variant | protein stability index
245 | W6F | 2.55
246 | W6Q | 3.48
247 | W6K | 3.24
248 | D7Y | 2
249 | D7K | 1.46
250 | D7E | 2.85
251 | D7Q | 2.44
252 | D7M | 1.44
253 | D7G | 1.49
254 | D7A | 3.25
255 | D7S | 1.61
256 | D7P | 1.96
257 | D7H | 1.68
258 | D7L | 1.72
259 | D7R | 1.77
260 | D7F | 1.23
261 | D7C | 2.37
262 | D7I | 1.04
263 | D7W | 1.49
264 | D7T | 2.27
265 | D7N | 2.44
266 | S1I | 1.56
267 | S1C | 2.69
268 | S1P | 2.94

Row | Variant | protein stability index
269 | S1R | 2.23
270 | S1N | 2.19
271 | S1G | 2.03
272 | S1K | 1.76
273 | S1Q | 2.36
274 | S1F | 1.92
275 | S1V | 2.85
276 | S1E | 3.87
277 | S1L | 1.36
278 | S1M | 1.96
279 | S1H | 2.46
280 | S1Y | 4
281 | S1W | 3.14
282 | S1D | 2.25
283 | S1T | 2.04
284 | M5C | 1.52
285 | M5F | 1.89
286 | M5I | 1.98
287 | M5P | 3.15
288 | M5A | 3.14
289 | M5D | 3.15
290 | M5L | 2.77
291 | M5G | 2.37
292 | M5V | 1.65

Row | Variant | protein stability index
293 | M5S | 2.5
294 | M5K | 2.64
295 | M5Y | 2.17
296 | M5T | 2.73
297 | M5N | 2.76
298 | M5R | 3.34
299 | R9L | 2.61
300 | R9C | 2.26
301 | R9S | 2.4
302 | R9P | 3.64
303 | R9W | 1.93
304 | R9A | 1.84
305 | R9Y | 2.42
306 | R9G | 2.89
307 | R9M | 3.13
308 | R9V | 2.38
309 | R9H | 3.7
310 | R9E | 3.54
311 | R9N | 2.73
312 | R9I | 2.34
313 | R9F | 3.11
314 | R9Q | 3.39
315 | R9D | 3.69
316 | Q8T | 2.09

Row | Variant | protein stability index
317 | Q8S | 2.28
318 | Q8R | 1.78
319 | Q8D | 2.35
320 | Q8W | 3.03
321 | Q8I | 1.94
322 | Q8K | 2.68
323 | Q8Y | 2.21
324 | Q8M | 1.39
325 | Q8G | 2.27
326 | Q8A | 2.03
327 | Q8H | 2.16
328 | Q8C | 1.37
329 | Q8F | 1.73
330 | Q8L | 1.86
331 | Q8E | 2.6
332 | Q8N | 2.68
333 | Q8P | 2.13
334 | Q8V | 2.33
